Experimental data from patent US12091680B2, “Method for differentiation induction in cultured stem cells” (RIKEN, priority 2009, dated 2024).

System: Rx-GFP ES cells
Assay: SFEBq culture with purified laminin/entactin and Nodal/Activin, formation of RxGFP+ vesicles and cup structures (Example 6)
Format: cell-based, mouse
Settings: for replacement of the retinal inducing activity of Nodal: 1000 ng/ml; for replacement of the retinal inducing activity of Nodal / appearance of Rx-GFP+ epithelia in SFEBq aggregates / morphology of Rx-GFP+ epithelia: combined with laminin+entactin; for appearance of Rx-GFP+ epithelia in SFEBq aggregates / morphology of Rx-GFP+ epithelia: treatment days 1-7; for appearance of Rx-GFP+ epithelia in SFEBq aggregates: Nodal 500 and 1000 ng/ml, Activin 250 ng/ml, read on day 7; for morphology of Rx-GFP+ epithelia: day 7 and day 10; for effect on neural (Sox1) and retinal (Rx) differentiation: treatment of SFEBq cells from day 0
Procedure: Rx-GFP ES cells (3000 cells/well, 96-well plate) were cultured in SFEBq culture with G-MEM supplemented with 1.5% KSR. In this experiment, instead of adding Matrigel to culture, purified laminin and entactin (High concentration Laminin/Entactin complex; BD; 120 μg/ml) were added as extracellular matrix proteins on day 1 (24 hours after the onset of differentiation culture). Recombinant Mouse Nodal (R&D; 500-1000 ng/mL) or Human Activin (R&D; 250 ng/ml) was also added on day 1 and the Nodal treatment was continued until day 7. SFEBq aggregates were cultured for 7-10 days and the formation of RxGFP+ vesicles and cup structures were examined under a fluorescent microscope. Nodal and Activin are known to act on common cell surface receptors and activate Smad2/3 signals in the cell.

Molecule: TGF-beta1: growth factor tested at 1000 ng/ml in place of Nodal
- replacement of the retinal inducing activity of Nodal: did not replace the inducing activity of Nodal

B1: Nodal: Recombinant Mouse Nodal (R&D); acts on cell surface receptors common with Activin and activates Smad2/3 signals (protein, UniProt P43021 245-354, looked up)
Nodal: HHLPDRSQLCRRVKFQVDFNLIGWGSWIIYPKQYNAYRCEGECPNPVGEEFHPTNHAYIQSLLKRYQPHRVPSTCCAPVKTKPLSMLYVDNGRVLLEHHKDMIVEECGCL
- appearance of Rx-GFP+ epithelia in SFEBq aggregates: large patches of Rx-GFP+ epithelia appeared
- morphology of Rx-GFP+ epithelia: formed optic vesicle-like sacs on day 7 and later exhibited the optic cup-like morphology on day 10
- effect on neural (Sox1) and retinal (Rx) differentiation: inhibited both neural (Sox1) and retinal (Rx) differentiation

B2: TGF-beta2: growth factor tested at 1000 ng/ml in place of Nodal; printed as 'TGF-beta1 or 2' (protein, UniProt P61812 303-414, looked up)
Transforming growth factor …: ALDAAYCFRNVQDNCCLRPLYIDFKRDLGWKWIHEPKGYNANFCAGACPYLWSSDTQHSRVLSLYNTINPEASASPCCVSQDLEPLTILYYIGKTPKIEQLSNMIVKSCKCS
- replacement of the retinal inducing activity of Nodal: did not replace the inducing activity of Nodal

B3: Activin: Human Activin (R&D); acts on cell surface receptors common with Nodal and activates Smad2/3 signals (protein, UniProt P08476 311-426, looked up)
Inhibin beta A chain: GLECDGKVNICCKKQFFVSFKDIGWNDWIIAPSGYHANYCEGECPSHIAGTSGSSLSFHSTVINHYRMRGHSPFANLKSCCVPTKLRPMSMLYYDDGQNIIKKDIQNMIVEECGCS
- appearance of Rx-GFP+ epithelia in SFEBq aggregates: large patches of Rx-GFP+ epithelia appeared
- morphology of Rx-GFP+ epithelia: formed optic vesicle-like sacs on day 7 and later exhibited the optic cup-like morphology on day 10
- effect on neural (Sox1) and retinal (Rx) differentiation: inhibited both neural (Sox1) and retinal (Rx) differentiation
